Here are results for three molecules from paper PMC7118173 (Nature Communications, 2020).

Substitutions are numbered along the chain they refer to. Numbers in names are those of the source.

Series [1] concerns the molecule itself. Description: SEC + AUC; sedimentation velocity, 42,000 rpm, 20 °C, 1-2 mg/ml, 50 mM Hepes pH 7.4, 150 mM KCl, 10 mM MgCl2; size exclusion chromatography. For orientation: Size exclusion chromatography separates by hydrodynamic size, large species first.
The test system of another series is FtsZ and SUVs. As to the kind of experiment: Cryo-EM of ternary complex FtsZ-GTP + SepF + SUVs. The class given is biochemical, C. glutamicum. As to conditions: 100 μM SUVs, 10 μM SepF, 10 μM FtsZ, 3 mM GTP. As for the experimental part:
5 µl of sample were deposited onto glow-discharged lacey carbon copper grids (Ted Pella) and plunge-frozen in liquid ethane using a Leica EM-CPC. Cryo-EM data acquisition was performed on a JEOL 2200FS (Jeol, Japan) 200 kV cryo-electron microscope equipped with an Omega in-column energy filter. High magnification (30,000×, corresponding pixel size 0.32 nm) zero-loss (slit: 20 eV) images were collected at nominal defocus between 1 and 4 µm depending on the experiment on a Gatan USC1000 slow scan CCD camera.

Series [2] concerns Pino-sepF strain. Description: Growth curves / complementation of the Pino-sepF strain. As to conditions: SepF depletion with 1% myo-inositol, exogenous construct induced.
Protocol: Positive colonies were grown in BHI media supplemented with 25 µg/ml kanamycin overnight at 30 °C and 120 rpm shaking.
All strains were plated in CGXII media plates with 4% (w/v) sucrose as a carbon source for 2 days at 30 °C and then single colonies were inoculated in 10 ml of CGXII media 4% (w/v) sucrose overnight at 30 °C and 120 rpm shaking. The next day, 20 ml of CGXII media supplemented with the appropriate repressor or inducer were inoculated with the overnight cultures to a starting OD600 of 1. OD600 measurements were taken every 1.5 h. Each growth curve represents the average of three different growth curves originally from three different single colonies. […] When required, CGXII media 4% (w/v) sucrose was supplemented with either 1% (w/v) myo-inositol, 50 ng/ml tetracycline or 1% (w/v) gluconate and 25 μg/ml kanamycin.
Another series concerns WT C. glutamicum. Description: Number of ring-like structures per cell, overexpression in WT. The class given is cell-based, Corynebacterium glutamicum. The note with it: for ring-like structures per cell: overexpression in WT background.
The subject of series [3] is SepF. Description: SepF polymerization (turbidity) assay in the presence of SUVs. The class given is biochemical, C. glutamicum. The note with it: SepF (or mutant) plus SUVs 50 µM each, pH 6.9, 25 °C. As for the experimental part: When used, FtsZCTD was added at a final concentration of 100 μM.
Reverse phase evaporation was used to prepare small unilamellar vesicles (SUVs). A 10 mM lipid solution made of an 8:2 mixture of 1-palmitoyl-2-oleoyl phosphatidylcholine (POPC) and 1-palmitoyl-2-oleoylglycero-3-phosphoglycerol (POPG) (Avanti Polar Lipids) was prepared as described. Chloroform was removed by evaporation under vacuum conditions and the dried phospholipid film was resuspended in a mixture of diethyl ether and buffer (25 mM Hepes pH 7.4, 10 mM MgCl2 and 150 mM KCl). Diethyl ether was eliminated by reverse phase evaporation and by slowly decreasing the pressure to the vacuum. SUVs were obtained by sonication during 30 min at 4 °C. The diameter and charge of SUV were determined by measuring dynamic light scattering (DLS) and electrophoretic mobility profiles on a Zetasizer Nano instrument (Malvern Instruments).

A further series can be described thus: Dynamic light scattering. The class given is physicochemical. The note with it: SUVs + SepF 50 µM each, pH 6.9, 25 °C. As for the experimental part: Polydispersity of the samples was measured using Dyna-pro Plate Reader (Wyatt technology) equipped with an 830 nm laser and a temperature control module. The Dynamics software (version 7.9) was used to schedule data acquisition and data analysis. For each well, 20 measurements of 10 s were averaged and this operation was repeated 20 times for each condition at 25 °C. For samples containing FtsZCTD, the peptide was used at a final concentration of 100 µM. All the experiments were carried out as minimum three biological and technical replicates.

Series [4] concerns FtsZ.
Protocol: After, 100 µl of the mixture were place in a 96-well-plate that contained GTP at 2 mM final concentration. Reactions were incubated at room temperature for 10 min and 100 µl of the developing reagent was added. The mixture was incubated at room temperature for 25 min to allow development of the green color and absorbance was measured at 620 nm using a Varioskan™ LUX (Thermo Fisher Scientific). Reactions were performed in triplicate for each condition.
The test system of series [5] is FtsZ. As to conditions: 400 nm, 25 °C, 600 s, 100 mM KCl, 10 mM MgCl2, 25 mM Pipes pH 6.9, 15 µM proteins, GTP.
Protocol: The mixture was placed into a quartz cuvette with a light path of 10 mm or a 96-well plate and 0.5−2 mM GTP or GMPCPP were added to the reaction mixture. Data acquisition started immediately using an UV–Visible Spectrophotometer (Thermo scientific Evolution 220) during 600 s at 25 °C using 400 nm for excitation and emission and spectra with slits widths of 1 nm or a Varioskan™ LUX plate reader (Thermo Fisher Scientific) with an excitation of 400 nm. Experiments were done in triplicates and measurements were taken every 15 s during 600 s and keeping a constant temperature of 25 °C.
In series [6] the test system is C. glutamicum ATCC13032 whole-cell extracts. Description: SepF and FtsZ quantification by Western blot. The class given is cell-based, Corynebacterium glutamicum. The note with it: 60 ugr loaded. A general note: Immunoblotting shows a protein as a band on a membrane.
For series [7], the system named is SepF. As to the kind of experiment: Western blots of whole-cell extracts (SepF depletion / expression). The class given is cell-based, C. glutamicum. As to conditions: SepF under Ptac, WT. As for the experimental part:
24 homogenizer. Crude extracts (120 μg) were analyzed by SDS-PAGE, electro-transferred onto a 0.2 μm Nitrocellulose membrane and blocked with 5% (w/v) skimmed milk. Membranes were incubated with an anti-SepF antibody (produced by Covalab, Supplementary Fig. 25a), an anti-FtsZ antibody (produced by Proteogenix, Supplementary Fig. 25b) or an anti-mNeonGreen antibody (purchased from Chromotek) for 1 h at room temperature.

Series [8] in a line: Negative stain EM of SUVs with SepF. The class given is biochemical. The note with it: end-point of SepF + SUVs reaction, 50 μM.
Series [9] in a line: Negative stain EM of SepF rings. The class given is physicochemical. Here is the method:
For all samples, 400 mesh carbon coated grids (Electron Microscopy Sciences; CF 400-Cu) were glow-discharged on an ELMO system for 30 sec at 2 mA. 5 µl samples were applied onto the grids and incubated for 30 s, the sample was blotted, washed in 3 drops of water and then stained with 2% (weight/vol) uranyl acetate. Images were recorded on a Gatan UltraScan4000 charged coupled device (CCD) camera (Gatan) on a Tecnai T12 BioTWINLaB6 electron microscope operating at a voltage of 120 kV.

Series [10] concerns FtsZ. This is another data set of the same source.
Series [11] concerns FtsZ. The note with it: immunoprecipitation coupled to crosslinking; unpaired t-test p 0.004.
Protocol: Cells were harvested, washed, and normalized by resuspending cell pellets in PBS-T (1X PBS, 0.1% v/v Tween-80) to give a final OD600 of 3. The cell suspensions were cross-linked with 0.25% v/v of formaldehyde for 20 min at 30 °C with gentle agitation. The crosslinking reaction was stopped by adding 1.25 M glycine and incubated for 5 min at room temperature. Cells were resuspended in 50 mM Bis-Tris pH 7.4, 75 mM aminocaproic acid, 1 mM MgSO4, 1× Benzonase, 1× Complete Protease inhibitors cocktail (ROCHE) and disrupted at 4 °C with 0.1 mm glass beads and using a [sequence] 24 homogenizer. After lysis, 0.1% n-Dodecyl-β-D-Maltopyranoside was added and the total extract was incubated for 1 h at 4 °C. Cell lysates were centrifuged at 4 °C for 10 min at 14,000 rpm and the soluble fraction was collected and protein levels quantified.
Detergent-solubilized protein extracts were incubated with 50 μl of magnetic beads cross-linked with 10 μg of purified anti-Scarlet antibody (produced by Covalab). […] Tryptic peptides from three replicates of each condition were analyzed using a nano-HPLC (Ultimate 3000, Thermo) coupled to a hybrid quadrupole-orbitrap mass spectrometer (Q-Exactive Plus, Thermo). […]
Patternlab for proteomics was used for label-free quantitation analyses using extracted ion chromatogram (XIC).
The test system of series [12] is Pino-sepF strain. Description: Cell length distribution (violin plots), Pino-sepF strains. The class given is cell-based, Corynebacterium glutamicum. As to conditions: 1% myo-inositol + 1% gluconate, t = 6, replicate 1, listed as PgntK_SepF(K125R/F131A)_Scarlet.
Protocol: For imaging, cultures of C. glutamicum were grown in BHI or minimal medium CGXII during the day, and washed and inoculated into CGXII media for overnight growth. The following day cultures were diluted to OD600 = 1 and grown to the required OD (early exponential phase) for imaging. For HADA labeling, cultures were incubated with 0.5 mM HADA for 20 min at 30 °C in the dark. Two percent agarose pads were prepared with the corresponding growth medium and cells were visualized using a Zeiss Axio Observer Z1 microscope fitted with an Orca Flash 4 V2 sCMOS camera (Hamamatsu), and a Pln-Apo 63×/1.4 oil Ph3 objective. Images were collected using Zen Blue 2.6 (Zeiss) and analyzed using the software Fiji[70] and the plugin MicrobeJ[71] to generate violin plots and fluorescent intensity heatmaps. […] The experiments were performed as biological triplicates.
In series [13] the test system is Pino-sepF strain. As to the kind of experiment: Scarlet fluorescence localization in the Pino-sepF strain. The class given is cell-based, Corynebacterium glutamicum. As to conditions: 1% myo-inositol plus 1% gluconate. Here is the method:
For imaging, cultures of C. glutamicum were grown in BHI or minimal medium CGXII during the day, and washed and inoculated into CGXII media for overnight growth. The following day cultures were diluted to OD600 = 1 and grown to the required OD (early exponential phase) for imaging. For HADA labeling, cultures were incubated with 0.5 mM HADA for 20 min at 30 °C in the dark. Two percent agarose pads were prepared with the corresponding growth medium and cells were visualized using a Zeiss Axio Observer Z1 microscope fitted with an Orca Flash 4 V2 sCMOS camera (Hamamatsu), and a Pln-Apo 63×/1.4 oil Ph3 objective. Images were collected using Zen Blue 2.6 (Zeiss) and analyzed using the software Fiji[70] and the plugin MicrobeJ[71] to generate violin plots and fluorescent intensity heatmaps. Statistical analyses of cell lengths are summarized in Supplementary Tables 5 and 6. The experiments were performed as biological triplicates. Some autofluorescence is observed for wild-type C. glutamicum as shown in Supplementary Fig. 24.

B1: C. glutamicum SepF devoid of helix α3 (construct of the SEC and AUC experiments) (domain or fragment)
chain: MSYQSTIVPVELHSFEDAQVIGGAFRDGDAVVFDMSLLSREEARRIVDFAAGLCFALRGKMQKIDSVTFAVVPEL
For orientation: stoichiometry N means the number of molecules, sites or subunits per partner or assembly. Regarding B1, the “stoichiometry N” value in series [1] came to 2.

B2: SepF: C. glutamicum SepF (cg2363), full-length (protein)
chain: MSMLKKTKEFFGLAPYEAEHEDAYYADEPRYEGTAAYAPEYRERDYGYAPEAPAPVAPSPAPRSYQSTIVPVELHSFEDAQVIGGAFRDGDAVVFDMSLLSREEARRIVDFAAGLCFALRGKMQKIDSVTFAVVPELSNISTSELERAARIR
modifications: left off: His6, N-terminal, cleaved | SUMO, N-terminal, cleaved
With B2, the “lipid binding in ternary complex” value in the series with FtsZ and SUVs is on record as “dimeric form of SepF retains lipid-binding capability”. Besides, the “complementation of SepF depletion (growth)” value in the series with Pino-sepF strain [2] is given as “rescued”. The “ring-like structures per cell” value in the series on WT C. glutamicum is recorded as “multiple-rings phenotype is not observed”. In addition, the “polymerization with SUVs (turbidity)” value in the series with SepF [3] is listed as “SepF concentration-dependent polymerization”. For the same molecule, the “particle size by DLS” value in the series “Dynamic light scattering” was “formation of large structures”. The “effect on GTPase activity of FtsZ” value with FtsZ [4] (15 µM SepF and FtsZ, F test p=0.5872) is listed as “did not significantly affect the GTPase activity of FtsZ”. In the series on FtsZ [4] (15 µM each, 2 mM GTP, pH 6.9, room temperature, 10 min, mean, n = 11), the “GTPase activity (phosphate release), mean” value amounted to 0.09 nmol. For the same molecule, the “effect on FtsZ polymerization / bundling” value in the series on FtsZ [5] was “strong FtsZ bundling effect”. The “band volume in whole-cell extract” value in series [6] (ON S (over-night, sucrose)) was found to be 455544; in series [6] (ON S+G (over-night, sucrose + gluconate)), 420204; in series [6] (T6 S (6 h, sucrose)), 522995; in [6] (T6 S+G (6 h, sucrose + gluconate)) it was 618345. The “protein overexpression upon induction” value in the series on SepF [7] is recorded as ~ 30 fold. Further, the “vesicle morphology by EM” value in [8] was “lipid vesicles were tubulated”. Also, the “ring-like structures by EM” value in [9] is recorded as “unsuccessful”. Besides, the “FtsZ filament morphology by EM” value with FtsZ [10] is “thick bundles of FtsZ protofilaments, as well as highly curved filaments”.

B3: SepFK125E/F131A-Scarlet: Scarlet-tagged SepF impaired for FtsZ binding (protein)
chain: B2 chain with K125E, F131A
modifications: left off: mScarlet-I, C-terminal, kept
Consider B3, for which, in the series on FtsZ [11], the “fold reduction of FtsZ binding (normalized FtsZ) versus SepF-Scarlet” value came to 7.2 fold. Moreover, in the series on Pino-sepF strain [2], the “complementation of SepF depletion (growth)” value is on record as “completely failed to complement”. Further, the mean cell length in the series on Pino-sepF strain [12] is 9.96. The “frequency of cells with n septa (ring-like structures)” value (shortened to “frequency of cells with n septa”) in the series on WT C. glutamicum (n septa 0, replicate 1) turned out to be 0.122; in the series on WT C. glutamicum (n septa 0, replicate 2) it was 0.074; in the series with WT C. glutamicum (n septa 0, replicate 3) it was 0.099; in the series on WT C. glutamicum (n septa 1, replicate 1), 0.227; with WT C. glutamicum (n septa 1, replicate 2) it was 0.25; in the series on WT C. glutamicum (n septa 1, replicate 3), 0.189. Besides, the “frequency of cells with n septa” value in the series on WT C. glutamicum (n septa 2, replicate 1) is recorded as 0.246; with WT C. glutamicum (n septa 2, replicate 2), 0.193; with WT C. glutamicum (n septa 2, replicate 3) it was 0.186; with WT C. glutamicum (n septa 3, replicate 1), 0.241; in the series on WT C. glutamicum (n septa 3, replicate 2), 0.22; with WT C. glutamicum (n septa 3, replicate 3) it was 0.232. Moreover, the “frequency of cells with n septa” value stood at 0.102 in the series with WT C. glutamicum (n septa 4, replicate 1); 0.152 in the series on WT C. glutamicum (n septa 4, replicate 2); 0.133 in the series on WT C. glutamicum (n septa 4, replicate 3); 0.042 in the series with WT C. glutamicum (n septa 5, replicate 1); 0.077 with WT C. glutamicum (n septa 5, replicate 2); 0.11 in the series with WT C. glutamicum (n septa 5, replicate 3). Further, the “frequency of cells with n septa” value with WT C. glutamicum (n septa 6, replicate 1) is given as 0.014; with WT C. glutamicum (n septa 6, replicate 2) it was 0.03; in the series on WT C. glutamicum (n septa 6, replicate 3), 0.033; in the series on WT C. glutamicum (n septa 7, replicate 1), 0.006; with WT C. glutamicum (n septa 7, replicate 2) it was 0.003; with WT C. glutamicum (n septa 7, replicate 3), 0.015. Also, the “ring-like structures per cell” value in the series with WT C. glutamicum was “net increase in the number of ring-like structures per cell”. The “localization of Scarlet construct” value in the series with Pino-sepF strain [13] was “diffuse in the cytoplasm”.
